Our source for the binding result and Kd values is US20240025992A1 (Janssen / Centocor, published 2024).

The labels stand for the following.
B2: DL3W33, Recombinant Human DLL1 ECD (Ser22-Gly540), -DI-C-6xHis (ligand)
chain: SGVFELKLQEFVNKKGLLGNRNCCRGGAGPPPCACRTFFRVCLKHYQASVSPEPPCTYGSAVTPVLGVDSFSLPDGGGADSAFSNPIRFPFGFTWPGTFSLIIEALHTDSPDDLATENPERLISRLATQRHLTVGEEWSQDLHSSGRTDLKYSYRFVCDEHYYGEGCSVFCRPRDDAFGHFTCGERGEKVCNPGWKGPYCTEPICLPGCDEQHGFCDKPGECKCRVGWQGRYCDECIRYPGCLHGTCQQPWQCNCQEGWGGLFCNQDLNYCTHHKPCKNGATCTNTGQGSYTCSCRPGYTGATCELGIDECDPSPCKNGGSCTDLENSYSCTCPPGFYGKICELSAMTCADGPCFNGGRCSDSPDGGYSCRCPVGYSGFNCEKKIDYCSSSPCSNGAKCVDLGDAYLCRCQAGFSGRHCDDNVDDCASSPCANGGTCRDGVNDFSCTCPPGYTGRNCSAPVSRCEHAPCHNGATCHERGHGYVCECARGYGGPNCQFLLPELPPGPAVVDLTEKLEGQGDIHHHHHH
notes: also called huDLL1; TPP000049465
B3: DL3W35, extracellular domain of human DLL3 linked to a C-terminal 6xHis-Tag and a linker (ligand)
chain: AGVFELQIHSFGPGPGPGAPRSPCSARLPCRLFFRVCLKPGLSEEAAESPCALGAALSARGPVYTEQPGAPAPDLPLPDGLLQVPFRDAWPGTFSFIIETWREELGDQIGGPAWSLLARVAGRRRLAAGGPWARDIQRAGAWELRFSYRARCEPPAVGTACTRLCRPRSAPSRCGPGLRPCAPLEDECEAPLVCRAGCSPEHGFCEQPGECRCLEGWTGPLCTVPVSTSSCLSPRGPSSATTGCLVPGPGPCDGNPCANGGSCSETPRSFECTCPRGFYGLRCEVSGVTCADGPCFNGGLCVGGADPDSAYICHCPPGFQGSNCEKRVDRCSLQPCRNGGLCLDLGHALRCRCRAGFAGPRCEHDLDDCAGRACANGGTCVEGGGAHRCSCALGFGGRDCRERADPCAARPCAHGGRCYAHFSGLVCACAPGYMGARCEFPVHPDGASALPAAHPGGGSGGGSGGGSHHHHHH
notes: also called human DLL3 ECD; huDLL3
B5: DL3W34, human DLL4 ECD (Ser27-Pro524), C-10xHis (ligand)
chain: SGVFQLQLQEFINERGVLASGRPCEPGCRTFFRVCLKHFQAVVSPGPCTFGTVSTPVLGTNSFAVRDDSSGGGRNPLQLPFNFTWPGTFSLIIEAWHAPGDDLRPEALPPDALISKIAIQGSLAVGQNWLLDEQTSTLTRLRYSYRVICSDNYYGDNCSRLCKKRNDHFGHYVCQPDGNLSCLPGWTGEYCQQPICLSGCHEQNGYCSKPAECLCRPGWQGRLCNECIPHNGCRHGTCSTPWQCTCDEGWGGLFCDQDLNYCTHHSPCKNGATCSNSGQRSYTCTCRPGYTGVDCELELSECDSNPCRNGGSCKDQEDGYHCLCPPGYYGLHCEHSTLSCADSPCFNGGSCRERNQGANYACECPPNFTGSNCEKKVDRCTSNPCANGGQCLNRGPSRMCRCRPGFTGTYCELHVSDCARNPCAHGGTCHDLENGLMCTCPAGFSGRRCEVRTSIDACASSPCFNRATCYTDLSTDTFVCNCPYGFVGSRCEFPVGLPHHHHHHHHHH
notes: also called huDLL4; TPP0000494661

Experiment [1] has as its target T1, CD3W147, homodimeric CD3εγ-Fc (biotinylated).
T1 construct: also called recombinant CD3; biotinylated CD3W147
T1 chain: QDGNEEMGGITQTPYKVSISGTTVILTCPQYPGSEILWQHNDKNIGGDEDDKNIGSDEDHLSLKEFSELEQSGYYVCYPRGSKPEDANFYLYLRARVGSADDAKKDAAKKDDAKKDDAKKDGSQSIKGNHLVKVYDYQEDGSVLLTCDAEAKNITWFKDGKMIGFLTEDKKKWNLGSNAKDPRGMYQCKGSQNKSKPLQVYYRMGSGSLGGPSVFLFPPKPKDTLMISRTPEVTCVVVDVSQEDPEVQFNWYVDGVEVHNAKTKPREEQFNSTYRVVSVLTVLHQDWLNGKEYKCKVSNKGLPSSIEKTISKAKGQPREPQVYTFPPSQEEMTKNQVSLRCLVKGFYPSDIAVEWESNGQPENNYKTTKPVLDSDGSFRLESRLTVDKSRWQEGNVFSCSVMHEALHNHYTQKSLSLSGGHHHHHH
As to the kind of experiment: ELISA, biotinylated CD3W147 immobilized, scFv in E. coli supernatant.
Experimental: Protein expression was induced by addition of 1 mM IPTG and cultures were grown overnight. After expression, cells were pelleted by centrifugation at 2,200×g for 5 min and supernatants were collected and tested directly for binding to biotinylated CD3W147 by ELISA.
Biotinylated CD3W147 was immobilized on the plate in concentrations ranging from 0.039 μg/mL to 2.5 μg/mL in 2-fold dilutions followed by incubation at room temperature for 45 min. Bound scFv was detected using chicken anti-HA-horseradish peroxidase and then detected with chemiluminescence substrate.

The target of experiment [2] is T2, DL3B574.
T2 construct: also called DL3B450 scFv-Fc; not shown: wild-type IgG1 Fc domain
As to the kind of experiment: SPR (ProteOn), antibody captured by anti-Fc; DLL1 at 100 nM and 1000 nM.

Experiment [3] deals with T2, DL3B574. Briefly: SPR (ProteOn), antibody captured by anti-Fc, DLL3 (DL3W35) titrated.
Experimental: (§1) The association and dissociation were monitored for 5 and 30 minutes, respectively, using a flow rate of 50 μL/min. Kinetic information (on-rate and off-rate constants) were extracted by fitting sensorgrams to the 1:1 Langmuir binding model. Binding affinity (KD) are reported as the ratio of rate constants (koff/kon).
Experiment [4] addresses B5. As to the kind of experiment: SPR (ProteOn), antibody captured by anti-Fc; DLL4 at 100 nM and 1000 nM.
Experimental: as §1
In experiment [5] the target is B3. Briefly: SPR (ProteOn), antibody captured by anti-Fc, DLL3 (DL3W35) titrated.
Experimental: as §1
In experiment [6] the target is T3, DL3W36, human DLL3 EGF6 domain+C-term ECD sequence, HSA Fusion and C-term 6 His tag (human).
T3 construct: Fusion with the C34S variant of human serum albumin, plus 6xHis; also called EGF-6 and C-terminal fusion domain; EGF6 + Cterm
T3 sequence (chain, as listed by the source limits assumed): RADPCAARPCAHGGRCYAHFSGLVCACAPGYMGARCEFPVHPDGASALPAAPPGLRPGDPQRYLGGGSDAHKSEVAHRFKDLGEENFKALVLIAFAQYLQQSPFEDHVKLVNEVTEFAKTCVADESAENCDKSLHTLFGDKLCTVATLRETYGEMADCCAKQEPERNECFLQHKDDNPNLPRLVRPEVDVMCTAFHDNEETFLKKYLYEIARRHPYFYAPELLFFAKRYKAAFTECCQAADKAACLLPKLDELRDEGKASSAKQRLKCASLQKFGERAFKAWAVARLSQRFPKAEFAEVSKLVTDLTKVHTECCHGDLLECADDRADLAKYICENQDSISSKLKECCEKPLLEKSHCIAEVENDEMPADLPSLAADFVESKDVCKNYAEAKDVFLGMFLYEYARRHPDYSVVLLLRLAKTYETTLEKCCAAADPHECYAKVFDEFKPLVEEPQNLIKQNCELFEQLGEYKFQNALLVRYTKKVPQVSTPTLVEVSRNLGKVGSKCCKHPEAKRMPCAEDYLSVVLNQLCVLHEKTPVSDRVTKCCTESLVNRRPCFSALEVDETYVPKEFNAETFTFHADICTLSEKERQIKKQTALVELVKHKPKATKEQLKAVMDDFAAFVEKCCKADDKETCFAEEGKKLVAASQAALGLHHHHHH
Briefly: MSD plate binding assay on coated DLL3 domain-HSA fusions.
Experimental: The plates were washed with PBS with 0.1% Tween and then blocked with Starting block solution for 30 minutes. […] Antigen bound antibody was detected with sulfo-tagged anti-human antibody (Meso Scale Discovery, R32AJ) for 60 minutes at ambient temperature followed by another PBS wash. Signal acquisition was done in the presence of 1× MSD read buffer T (MSD, Cat #R92TC-1) on the MSD Sector 600 imager with appropriate plate settings. Data was analyzed for the highest binding signal per domain indicating the preferential domain binding.

In experiment [7] the target is B2. Briefly: SPR (ProteOn), antibody captured by anti-Fc; DLL1 at 100 nM and 1000 nM.
Experimental: as §1
Experiment [8] addresses T2, DL3B574. Briefly: SPR (ProteOn), antibody captured by anti-Fc; DLL4 at 100 nM and 1000 nM.
Experimental: as §1

B1: CD3W245-HL-E.c. (scFv)
scFv: EVQLVESGGGLVKPGGSLRLSCAASGFTFSRYNMNWVRQAPGKGLEWVSSISTSSNYIYYADSVKGRFTFSRDNAKNSLDLQMSGLRAEDTAIYYCTRGWGPFDYWGQGTLVTVSSGTEGKSSGSGSESKSTDIQMTQSPSSLSASVGDRVTITCRARQSIGTAIHWYQQKPGKAPKLLIKYASESISGVPSRFSGSGSGTDFTLTISSLQPEDFATYYCQQSGSWPYTFGQGTKLEIKGPGGQHHHHHHGAYPYDVPDYAS
notes: Tested as E. coli supernatant; also called CD3W245 scFv-HL; CD3W245 scFv HL expressed in E. coli
Consider B1, for which, in experiment [1], the binding result is listed as “binds”. Consider B2, for which the binding result in the experiment with DL3B574 [2] is recorded as “no binding (tested: 1000 nM)”. Turning to B3, in the experiment with DL3B574 [3], the Kd came to 2.37 nM.

B4: DL3B575 (Fc fusion)
scFv: DIVMTQSPLSSPVTLGQPASISCRSSQSLVHSDGNTYLNWLQQRPGQPPRLLIYQISNPFSGVPDRFSGSGAGTDFTLKISRVEAEDVGVYYCMQATQFPHTFGPGTKVEIKGGSEGKSSGSGSESKSTGGSQVQLVQSGAEVKKPGSSVKVSCKASGGTLSSYVISWVRQAPGQGLEWMGGIIPIFGTANYAQKFQDRVTITADKSTNTAYMELTSLTSEDTAVYYCARDPFSDLWGRGTMVTVSS
notes: also called DL3B461 scFv-Fc; not shown: wild-type IgG1 Fc domain
As to B4, the binding result in experiment [4] was “no binding (tested: 1000 nM)”; in experiment [6], “binds”; in experiment [7], “no binding (tested: 1000 nM)”. In experiment [5], this molecule had a Kd of 0.31 nM. Turning to B5, the binding result in the experiment with DL3B574 [8] was “no binding (tested: 1000 nM)”.
